This note sets out measurements from article PMC7210950 (2020).

Square brackets hold non-standard residues; d marks the D form. Ends that are not written are not given here. pY = N[C@@H](Cc1ccc(OP(=O)(O)O)cc1)C(=O)O

Test in all cases: FP
Assay [1] addresses Btk SH2 domain, wild-type (recombinant) (human, UniProt Q06187 271-383).
In assay [2] the target is Btk SH2 domain K296E (XLA mutation) (human, UniProt Q06187 271-383, K296E).
The target of assay [3] is Btk SH2 domain R372G (XLA mutation) (human, UniProt Q06187 271-383, R372G).
In assay [4] the target is Btk SH2 domain K374N (XLA mutation) (human, UniProt Q06187 271-383, K374N).
In assay [5] the target is Btk SH2 domain S371P (XLA mutation) (human, UniProt Q06187 271-383, S371P).
Assay [6] addresses Btk SH2 domain H364D (XLA mutation) (human, UniProt Q06187 271-383, H364D).

Chain of Btk SH2 domain R372G (XLA mutation) (Q06187 271-383 R372G): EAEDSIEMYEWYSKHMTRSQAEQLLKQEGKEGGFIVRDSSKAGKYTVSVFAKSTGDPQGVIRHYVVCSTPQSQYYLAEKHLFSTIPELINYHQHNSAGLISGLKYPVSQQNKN
Chain of Btk SH2 domain S371P (XLA mutation) (Q06187 271-383 S371P): as the sequence (Q06187 271-383 R372G) above, with S101P, G102R counted along it
Chain of Btk SH2 domain K374N (XLA mutation) (Q06187 271-383 K374N): as the sequence (Q06187 271-383 R372G) above, with G102R, K104N counted along it
Chain of Btk SH2 domain, wild-type (recombinant) (Q06187 271-383): as the sequence (Q06187 271-383 R372G) above, with G102R counted along it
Chain of Btk SH2 domain K296E (XLA mutation) (Q06187 271-383 K296E): as the sequence (Q06187 271-383 R372G) above, with K26E, G102R counted along it
Chain of Btk SH2 domain H364D (XLA mutation) (Q06187 271-383 H364D): as the sequence (Q06187 271-383 R372G) above, with H94D, G102R counted along it

One may read the Kd as the constant that tells how readily two partners part at equilibrium. Consider ADND[pY]IIPLPD (also: FITC label, end not given here) [FITC-labeled pY-peptide (ADNDpYIIPLPD)], for which the Kd came out at 7.1 µM in assay [1]; 21.8 µM in assay [2]; 5.8 µM in assay [3]; 8.7 µM in assay [4]; 5.7 µM in assay [5]; 6.9 µM in assay [6].
